Each block holds one molecule with its values, some of them ahead of it.
B3: Rep15, full length (natural N101D variant) (natural protein, human, UniProt Q6BDI9 1-236, looked up)
chain: MGQKASQQLALKDSKEVPVVCEVVSEAIVHAAQKLKEYLGFEYPPSKLCPAANTLNEIFLIHFITFCQEKGVDEWLTTTKMTKHQAFLFGADWIWTFWGSDKQIKLQLAVQTLQMSSPPPVESKPCDLSNPESRVEESSWKKSRFDKLEEFCNLIGEDCLGLFIIFGMPGKPKDIRGVVLDSVKSQMVRSHLPGGKAVAQFVLETEDCVFIKELLRNCLSKKDGLREVGKVYISIL
notes: also called full-length Rep15; Rab15 effector protein

Experiments:
Rab34 = biological target: T1, Rab34 (Homo sapiens, UniProt Q9BZG1, Q111L); test: nucleotide loading, C18 reversed-phase HPLC of bound nucleotide; type: binding
T1 construct: full-length Rab34 from E. coli, preparatively loaded with GppNHp
T1 sequence (Q9BZG1 1-237 Q111L): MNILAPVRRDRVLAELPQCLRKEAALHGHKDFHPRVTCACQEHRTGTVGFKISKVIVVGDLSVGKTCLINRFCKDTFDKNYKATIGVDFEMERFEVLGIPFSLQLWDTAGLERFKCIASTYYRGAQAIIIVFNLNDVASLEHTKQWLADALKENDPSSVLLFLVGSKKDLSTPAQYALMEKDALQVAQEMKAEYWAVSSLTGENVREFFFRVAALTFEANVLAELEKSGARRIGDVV

[1] = biological target: T2, Rep15, full length (natural N101D variant) (human, UniProt Q6BDI9 1-236, N101D); test: ITC
T2 sequence: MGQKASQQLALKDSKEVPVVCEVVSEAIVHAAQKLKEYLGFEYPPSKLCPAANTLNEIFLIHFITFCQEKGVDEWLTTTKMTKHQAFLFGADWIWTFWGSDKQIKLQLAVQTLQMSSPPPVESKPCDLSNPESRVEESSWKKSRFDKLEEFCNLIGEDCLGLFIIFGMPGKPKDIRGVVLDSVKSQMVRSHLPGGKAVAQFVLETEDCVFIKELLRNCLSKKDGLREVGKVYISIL

[2] = biological target: B3; test: SEC; analytical SEC; 110 µM Rep15 and 121 µM Rab mixed; Superdex 75 10/300 GL; 20 mM Hepes 8.0, 50 mM NaCl, 1 mM MgCl2, 2 mM DTE; room temperature; settings: both partners purified
[3] = biological target: T3, Rab34 Q111L F114Y, purified (human, UniProt Q9BZG1 1-237, Q111L | F114Y); test: ITC
T3 sequence: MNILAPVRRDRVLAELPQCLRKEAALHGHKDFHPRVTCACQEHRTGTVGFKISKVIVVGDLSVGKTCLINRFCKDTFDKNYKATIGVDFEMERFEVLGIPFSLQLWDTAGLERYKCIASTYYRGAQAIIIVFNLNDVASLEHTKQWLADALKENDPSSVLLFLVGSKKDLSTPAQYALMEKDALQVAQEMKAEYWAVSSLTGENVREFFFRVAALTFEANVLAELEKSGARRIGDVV

[4] = biological target: T4, Rab34 Q111L 1-237 (dominant active), purified, GTP-loaded (human, UniProt Q9BZG1 1-237, Q111L); test: ITC; 500/600 µM GppNHp/GTP Rab titrated into 50/60 µM Rep15; 20 mM Hepes 8.0, 50 mM NaCl, 1 mM MgCl2, 1 mM TCEP; one-site-binding model; settings: both partners purified
T4 construct: Rab34, human, residues 1-237 with Q111L; also called Rab34_(Q111L_1-237aa)
T4 sequence (looked up): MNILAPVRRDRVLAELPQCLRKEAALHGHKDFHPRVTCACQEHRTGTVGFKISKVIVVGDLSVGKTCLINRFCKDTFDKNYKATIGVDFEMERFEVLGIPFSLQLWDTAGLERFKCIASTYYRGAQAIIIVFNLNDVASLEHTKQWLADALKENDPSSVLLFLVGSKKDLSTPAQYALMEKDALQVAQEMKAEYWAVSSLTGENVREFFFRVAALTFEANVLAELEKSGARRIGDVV

[5] = biological target: B3; test: fluorescence polarisation; stopped flow, association; mant-GppNHp Rab15 mixed with increasing Rep15 (2.5–25 µM); 25 °C; 20 mM Hepes 8.0, 50 mM NaCl, 2 mM MgCl2, 2 mM DTE; kobs against Rep15 concentration, koff from the intercept, KD as koff/kon; settings: both partners purified
[6] = biological target: B3; test: ITC; 500/600 µM GppNHp/GTP Rab titrated into 50/60 µM Rep15; 20 mM Hepes 8.0, 50 mM NaCl, 1 mM MgCl2, 1 mM TCEP; one-site-binding model; settings: both partners purified
[7] = biological target: Rep15, full length (natural N101D variant) (human) (UniProt Q6BDI9); test: as above
[8] = biological target: T2, Rep15, full length (natural N101D …); test: ITC; remark: listed apart in the source

Molecule: Nc1nc2c(ncn2[C@@H]2O[C@H](COP(=O)(O)OP(N)(=O)O)[C@@H](O)[C@H]2O)c(=O)[nH]1 [GppNH2]
nucleotide loading, C18 reversed-phase HPLC of bound nucleotide (Rab34; formed during loading with GppNHp, mixture with GppNHp): apart from GppNHp, Rab34 is also bound to GppNH2 (hydrolysis product of GppNHp)

Molecule: Nc1nc2c(ncn2[C@@H]2O[C@H](COP(=O)(O)OP(=O)(O)NP(=O)(O)O)[C@@H](O)[C@H]2O)c(=O)[nH]1 [GppNHp, Guanosine-5′-[β-γ-Imido]-triphosphate]
nucleotide loading, C18 reversed-phase HPLC of bound nucleotide (Rab34; preparative nucleotide exchange, mixture with GppNH2): apart from GppNHp, Rab34 is also bound to GppNH2 (hydrolysis product of GppNHp)

Kd [1]: 790 nM | binding result [2]: binds
B1: Rab3D, purified, GppNHp-loaded (natural protein, human, UniProt O95716 1-219, looked up)
chain: MASAGDTQAGPRDAADQNFDYMFKLLLIGNSSVGKTSFLFRYADDSFTPAFVSTVGIDFKVKTVYRHDKRIKLQIWDTAGQERYRTITTAYYRGAMGFLLMYDIANQESFAAVQDWATQIKTYSWDNAQVILVGNKCDLEDERVVPAEDGRRLADDLGFEFFEASAKENINVKQVFERLVDVICEKMNESLEPSSSSGSNGKGPAVGDAPAPQPSSCSC
notes: Rab3D, human; source: E. coli BL21 Codon-Plus (DE3)-RIL, purified (Ni Sepharose, TEV cleavage, gel filtration)

Kd [1]: 2160 nM | binding result [2]: binds
B2: Rab3B, purified, GppNHp-loaded (natural protein, human)
chain: MASVTDGKTGVKDASDQNFDYMFKLLIIGNSSVGKTSFLFRYADDTFTPAFVSTVGIDFKVKTVYRHEKRVKLQIWDTAGQERYRTITTAYYRGAMGFILMYDITNEESFNAVQDWATQIKTYSWDNAQVILVGNKCDMEEERVVPTEKGQLLAEQLGFDFFEASAKENISVRQAFERLVDAICDKMSDSLDTDPSMLGSSKNTRLSDTPPLLQQNCSC
notes: Rab3B, human; also called Rab3B_(GppNHp); source: E. coli BL21 Codon-Plus (DE3)-RIL, purified (Ni Sepharose, TEV cleavage, gel filtration)

Molecule: B3
Kd [3]: 78.7 nM | Kd [4]: 64 ± 32 nM

Kd [5]: 580 nM | koff [5]: 4.73 s⁻¹ | kon [5]: 8.16e+06 M⁻¹ s⁻¹ | Kd [6]: 470 ± 120 nM | stoichiometry N [6]: 1
B4: Rab15, purified, nucleotide-loaded (natural protein, human, UniProt P59190 1-212, looked up)
chain: MAKQYDVLFRLLLIGDSGVGKTCLLCRFTDNEFHSSHISTIGVDFKMKTIEVDGIKVRIQIWDTAGQERYQTITKQYYRRAQGIFLVYDISSERSYQHIMKWVSDVDEYAPEGVQKILIGNKADEEQKRQVGREQGQQLAKEYGMDFYETSACTNLNIKESFTRLTELVLQAHRKELEGLRMRASNELALAELEEEEGKPEGPANSSKTCWC
notes: Rab15, human; Loaded with GppNHp (aSEC, ITC) or mant-GppNHp / mant-dGppNHp (stopped flow); also called Rab15_(GppNHp); Rab15_(mant-GppNHp); source: E. coli BL21 Codon-Plus (DE3)-RIL, purified (Ni Sepharose, TEV cleavage, gel filtration)

fold reduction in affinity against wild-type Rab3A [7]: 23 fold | Kd [8]: 11100 nM
B5: Rab3A Y84F, purified (natural protein)
chain: MASATDSRYGQKESSDQNFDYMFKILIIGNSSVGKTSFLFRYADDSFTPAFVSTVGIDFKVKTIYRNDKRIKLQIWDTAGQERFRTITTAYYRGAMGFILMYDITNEESFNAVQDWSTQIKTYSWDNAQVLLVGNKCDMEDERVVSSERGRQLADHLGFEFFEASAKDNINVKQTFERLVDVICEKMSESLDTADPAVTGAKQGPQLSDQQVPPHQDCAC

Kd [8]: 390 nM | binding result [6]: binds
B6: Rab3A V61N, purified (natural protein, human, UniProt P20336 1-220, looked up)
chain: MASATDSRYGQKESSDQNFDYMFKILIIGNSSVGKTSFLFRYADDSFTPAFVSTVGIDFKNKTIYRNDKRIKLQIWDTAGQERYRTITTAYYRGAMGFILMYDITNEESFNAVQDWSTQIKTYSWDNAQVLLVGNKCDMEDERVVSSERGRQLADHLGFEFFEASAKDNINVKQTFERLVDVICEKMSESLDTADPAVTGAKQGPQLSDQQVPPHQDCAC
notes: Rab3A, human, with V61N; Tag as told for the 6His-tagged Rab3 paralogs in general; source: E. coli BL21 Codon-Plus (DE3)-RIL, purified

Kd [8]: 10800 nM | fold increase in affinity against wild-type Rab27A [6]: > 8 fold
B7: Rab27A F81Y, purified (natural protein, human, UniProt P51159 1-221, looked up)
chain: MSDGDYDYLIKFLALGDSGVGKTSVLYQYTDGKFNSKFITTVGIDFREKRVVYRASGPDGATGRGQRIHLQLWDTAGQERYRSLTTAFFRDAMGFLLLFDLTNEQSFLNVRNWISQLQMHAYCENPDIVLCGNKSDLEDQRVVKEEEAIALAEKYGIPYFETSAANGTNISQAIEMLLDLIMKRMERCVDKSWIPEGVVRSNGHASTDQLSEEKEKGACGC
notes: Rab27A, human, with F81Y; also called F81Y Rab27A; source: E. coli, purified

Kd [8]: 86200 nM
B8: Rab27A, purified (natural protein)
chain: MSDGDYDYLIKFLALGDSGVGKTSVLYQYTDGKFNSKFITTVGIDFREKRVVYRASGPDGATGRGQRIHLQLWDTAGQERFRSLTTAFFRDAMGFLLLFDLTNEQSFLNVRNWISQLQMHAYCENPDIVLCGNKSDLEDQRVVKEEEAIALAEKYGIPYFETSAANGTNISQAIEMLLDLIMKRMERCVDKSWIPEGVVRSNGHASTDQLSEEKEKGACGC
